In US9823254B2, “Reversible chemoenzymatic labeling of native and fusion carrier protein motifs” (The Regents of the University of California, priority 2012, dated 2017):
“And” between values parts separate entries of the source, which are not always exact repeats. Identical values can stand only once.

Experiments:
P. fluorescens PltL = test: AcpH qualitative CP activity, gel-based, crypto-CP; type: biochemical
Method: (§1) Unless otherwise noted, all coumarin-PPant labeling proceeded as follows: apo-carrier protein or peptide at 50-200 μM were labeled in 50 mM Na-HEPES pH 7.5, 10 mM MgCl2, 8 mM ATP, 0.1 μM MBP-CoaA/D/E, 0.1 μM native Sfp, and 1.1 equivalents of coumarin-pantetheine at 37° C. overnight. Crypto-protein samples were repurified using standard IMAC techniques in pH 8 lysis buffer with Ni-NTA resin, and spin-concentrated/buffer exchanged to remove imidazole and concentrate with 0.5 mL 3 kDa MWCO cellulose filters.
(§2) Following AcpH treatment, an equal volume of 2×SDS-PAGE loading dye was added to crypto-carrier proteins samples and heated 5 min at 90° C., and run on 12% or 15% SDS-PAGE. Gels were fixed in 50/40/10% water/methanol/acetic acid for 30 minutes, and washed with water three times before UV imaging. Holo-carrier protein reactions were analyzed with Urea-PAGE as previously described.^6 All protein gels were Coomassie stained for evaluating total protein.

holo-ACP (E. coli) = holo-ACP (E. coli) (Escherichia coli, UniProt P0A6A8); conditions: 37° C., HPLC detection, [AcpH] 1 (CyAcpH 0.005) μm
Method: Holo-E. coli AcpP was prepared as a serial dilution in 50 mM TrisCl, 250 mM NaCl, 30 mM MgCl2, and 2 mM MnCl2. […] CyAcpH was prepared at 10 nM in the same AcpH buffer. […] Reactions were transferred to prewarmed shaker at 37° C. and were quenched with 100 mM EDTA after 10 minutes. Samples were centrifuged and evaluated at 210 nm with HPLC using an acetonitrile gradient to determine apo-AcpP product formation. Michaelis-Menten kinetics were calculated using GraphPad Prism (GraphPad Software, La Jolla, Calif.).
E. coli holo-ACP was diluted into 50 mM TrisCl pH 8.0, 250 mM NaCl, 10% glycerol, 30 mM MgCl2 and 2 mM MnCl2 buffer to a concentration of 800 μM. […] AcpH was diluted from MOPS lysis buffer into 50 mM TrisCl pH 8.0, 250 mM NaCl, 10% glycerol and added to an equal volume of the holo-ACP serial dilution to initiate the reaction. Reaction tubes were transferred to a pre-warmed rack at 37° C. and shaken for the duration of the experiment. […] All samples were frozen at -80° C. until evaluated by HPLC.
Kinetics samples were mixed briefly with finger flicking, and centrifuged at 13000 rpm for 10 minutes at room temperature prior to transferring contents into HPLC vials. 20 μL of each reaction time point was injected on an Agilent 1100 series HPLC with column (Burdick & Jackson OD5 #9575, 25 cm×4.6 mm ID) using an acetonitrile/water gradient. Both water and acetonitrile contained 0.05% TFA. Method gradient for each injection: 0-5 min with 10% acetonitrile, 5-30 min with 10-100% acetonitrile, 30-35 min with 100% acetonitrile, 35-37 min with 100-10% acetonitrile, 37-40 min with 10% acetonitrile. HPLC-grade solvents (J. T. Baker, Phillipsburg, N.J.) were used exclusively. Apo- & holo-ACP protein standards were used to validate the retention times identified using 210 nm UV light at approximately 21 and 19 minutes, respectively. Peak integration was performed for all samples, and substrate turnover was calculated from the ratio of apo- to holo-ACP present in the HPLC trace and the known concentration of total ACP in reaction samples. Calculated rates for AcpH versus substrate concentration were obtained through Excel data analysis and graphed in Prism GraphPad using the “Michaelis-Menten” function for enzyme kinetics, with a zero data point added for substrate concentration of 0 μM*min-1 and 0 μM substrate for AcpH graphs.

S. coelicolor ActACP = target: T1, S. coelicolor ActACP (Streptomyces coelicolor, UniProt Q02054); test: AcpH qualitative CP activity, gel-based, crypto-CP; type: biochemical; conditions: PKS; crypto-CP (coumarin-PPant), overnight, 37° C., 1 μM AcpH
T1 construct: made in house
T1 sequence (Q02054 whole entry, looked up): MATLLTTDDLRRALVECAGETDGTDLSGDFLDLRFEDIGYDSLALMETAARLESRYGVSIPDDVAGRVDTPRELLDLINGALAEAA
Method: (§3) Unless otherwise noted, all coumarin-PPant labeling proceeded as follows: apo-carrier protein or peptide at 50-200 μM were labeled in 50 mM Na-HEPES pH 7.5, 10 mM MgCl2, 8 mM ATP, 0.1 μM MBP-CoaA/D/E, 0.1 μM native Sfp, and 1.1 equivalents of coumarin-pantetheine at 37° C. overnight. Crypto-protein samples were repurified using standard IMAC techniques in pH 8 lysis buffer with Ni-NTA resin, and spin-concentrated/buffer exchanged to remove imidazole and concentrate with 0.5 mL 3 kDa MWCO cellulose filters. Crypto-peptide samples were purified with HPLC, lyophilized, and redissolved in 50 mM TrisCl pH 8.0 prior to analysis.
(§4) Following AcpH treatment, an equal volume of 2×SDS-PAGE loading dye was added to crypto-carrier proteins samples and heated 5 min at 90° C., and run on 12% or 15% SDS-PAGE. Gels were fixed in 50/40/10% water/methanol/acetic acid for 30 minutes, and washed with water three times before UV imaging. Holo-carrier protein reactions were analyzed with Urea-PAGE as previously described.^6 All protein gels were Coomassie stained for evaluating total protein. Crypto-peptides were evaluated on Urea-PAGE, and were imaged immediately after running with no gel fixing.

P. agglomerans AdmA = test: AcpH qualitative CP activity, gel-based, crypto-CP; type: biochemical; conditions: NRPS; crypto-CP (coumarin-PPant), overnight, 37° C., 1 μM AcpH
Method: as §1, §2

P. agglomerans AdmI = test: AcpH qualitative CP activity, gel-based, crypto-CP; type: biochemical; conditions: PKS; crypto-CP (coumarin-PPant), overnight, 37° C., 1 μM AcpH
Method: as §1, §2

L majuscula JamF = test: AcpH qualitative CP activity, gel-based, crypto-CP; type: biochemical; conditions: PKS; crypto-CP (coumarin-PPant), overnight, 37° C., 1 μM AcpH
E. coli ACP (AcpP) = E. coli ACP (AcpP) (Escherichia coli, UniProt P0A6A8); conditions: SDS-PAGE
Method: 50 mL LB media supplemented with 25 μM calcium D-pantothenate, 50 mM D-glucose, and 50 μg/mL kanamycin utilized previously. Media was inoculated with 1 mL of overnight DK554 starter culture and grown to OD=0.4. IPTG was added at a concentration of 1 mM to the media and was shaken for 5 hours at 37° C. Media was centrifuged at 4000 rpm at 4° C. for 30 minutes to pellet cells. Cell pellets were resuspended in 25 mM TrisCl pH 7.5, 250 mM NaCl, 0.1 mg/mL lysozyme, 10 μM pepstatin, 10 μM leupeptin and passed twice through a French pressure device at 1000 psi. Removal of coumarin-pantetheine from ACP in 5 mL lysate used 10 μM MBP-AcpH fusion in 600 mL AcpH reaction buffer (50 mM TrisCl, pH 8.0, 100 mM NaCl, 10% glycerol, 15 mM MgCl2, 1 mM MnCl2) within a 3 kDa MWCO dialysis bag at 37° C. overnight.
E. coli DK554 cell lysate with total protein concentration of approximately 2 mg/mL was added to the volume of premade 10×PPTase reaction buffer (500 mM Na-HEPES, 100 mM MgCl2, pH 7.4) that brought the total reaction concentration to 50 mM Na-HEPES pH 7.4, 10 mM MgCl2, 5 μM of coumarin-CoA, and 2 μM Sfp. […]

L majuscula JamC = target: T2, L majuscula JamC (Moorena producens, UniProt Q6E7K7); test: AcpH qualitative CP activity, gel-based, crypto-CP; type: biochemical; conditions: PKS; crypto-CP (coumarin-PPant), overnight, 37° C., 1 μM AcpH
T2 construct: made in house
Method: as §1, §2

P. falciparum ACP = test: AcpH qualitative CP activity, gel-based, crypto-CP; type: biochemical; conditions: FAS; crypto-CP (coumarin-PPant), overnight, 37° C., 1 μM AcpH
Method: as §3, §4

V. cholerae VibB = target: T3, V. cholerae VibB (Vibrio cholerae serotype O1, UniProt P0C6D3); conditions: NRPS; crypto-CP (coumarin-PPant), overnight, 37° C., 1 μM AcpH
T3 sequence (P0C6D3 whole entry, looked up): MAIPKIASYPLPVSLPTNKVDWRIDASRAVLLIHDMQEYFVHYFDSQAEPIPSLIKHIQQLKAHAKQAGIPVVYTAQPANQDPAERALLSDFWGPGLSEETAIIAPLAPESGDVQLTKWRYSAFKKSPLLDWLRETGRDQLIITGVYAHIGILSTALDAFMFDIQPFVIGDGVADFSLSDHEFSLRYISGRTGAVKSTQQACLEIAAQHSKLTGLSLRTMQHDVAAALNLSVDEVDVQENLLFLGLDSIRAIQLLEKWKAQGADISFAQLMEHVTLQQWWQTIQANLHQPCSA

M. tuberculosis MAS = test: AcpH qualitative CP activity, gel-based, crypto-CP; type: biochemical; conditions: FAS (FAS/PKS hybrid), overnight, 37° C., 1 μM AcpH

B1: PaAcpH: acyl carrier protein hydrolase (AcpH) from P. aeruginosa PAO1, NP13 253043.1 (protein)
chain: MNYLAHLHLGGPQPAQLLGSLYGDFVKGRLQGQWPDEIERAIQLHRRIDAFTDSHPLVHAAKRRFPLERRRFAGVLLDVFFDHCLARDWNDYADEPLPQFVERVYGTLRTASPLPERLARIAPRMAAQDWLGSYREFAVLREVLGGMSRRLSRPHLLDGSWEELAQRYDDLSADFRAFYPQLQAFALSQR
- AcpH activity with PltL (P. fluorescens PltL; NRPS-type PCP, crypto-PltL): partial activity
- AcpH qualitative CP activity (P. fluorescens PltL; NRPS, crypto-CP (coumarin-PPant), overnight, 37° C., 1 μM AcpH): YES
- Km (holo-ACP (E. coli)): 12 ± 2 µM
- Vmax (holo-ACP (E. coli)): 0.59 ± 0.02 min⁻¹
- kcat (holo-ACP (E. coli)): 0.6 min⁻¹ and 0.59 ± 0.02 min⁻¹
- AcpH qualitative CP activity (S. coelicolor ActACP): no
- AcpH qualitative CP activity (P. agglomerans AdmA): no
- AcpH qualitative CP activity (P. agglomerans AdmI): no
- AcpH qualitative CP activity (L majuscula JamF): no
- removal of coumarin-PPT from ACP (E. coli ACP (AcpP); coumarin-labeled E. coli DK554 lysate, 254 nm): uniformly removed
- removal of rhodamine label from ACP (E. coli ACP (AcpP); rhodamine-labeled ACP, 532 nm): can also be removed
- AcpH qualitative CP activity (L majuscula JamC): YES
- AcpH qualitative CP activity (P. falciparum ACP): YES
- AcpH qualitative CP activity (V. cholerae VibB): no
- AcpH qualitative CP activity (M. tuberculosis MAS): no
